Reference: paper PMC11637584 (2024)

Target: Ubiquitin (Homo sapiens, UniProt P0CG48)
Assay: BLI

B1: MERS-CoV papain-like protease (PLpro) PLpro (protein)
chain: QLTIEVLVTVDGVNFRTVVLNNKNTYRSQLGCVFFNGADISDTIPDEKQNGHSLYLADNLTADETKALKELYGPVDPTFLHRFYSLKAAVHKWKMVVCDKVRSLKLSDNNCYLNAVIMTLDLLKDIKFVIPALQHAFMKHKGGDSTDFIALIMAYGNCTFGAPDDASRLLHTVLAKAELCCSARMVWREWCNVCGIKDVVLQGLKACCYVGVQTVEDLRARMTYVCQCGGERHRQIVEHTTPWLLLSGTPNEKLVTTSTAPDFVAFNVFQGIETAVGHYVHARLKGGLILKFDSGTVSKTSDWKCKVTDVLFPGQKYSSDCN
Kd: 40.8 µM
